Test results reported in patent US20240197828A1, “Chimeric molecule to treat sepsis and other inflammatory conditions” (THE FEINSTEIN INSTITUTES FOR MEDICAL RESEARCH, priority 2022, published 2024).

Target: T1, rmCIRP (Mus musculus, UniProt P60824)
T1 construct: purchased Cubasio Technology LLC CSB-EP613483He0
T1 sequence (P60824 1-172): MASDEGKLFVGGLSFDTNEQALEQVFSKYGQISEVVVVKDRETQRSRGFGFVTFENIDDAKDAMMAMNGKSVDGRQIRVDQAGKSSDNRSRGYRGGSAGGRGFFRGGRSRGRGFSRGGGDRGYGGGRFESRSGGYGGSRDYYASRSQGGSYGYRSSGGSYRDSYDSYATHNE
Experiment: Surface plasmon resonance (Biacore/OpenSPR) binding to rmCIRP
Design: species or system murine
Conditions: rmCIRP immobilized, rmMFG-E8 analyte 15.7 to 250 nM, DPBS with Ca/Mg, 1% BSA, pH 7.4; read-out: equilibrium dissociation KD between rmCIRP and rmMFG-E8
Source text: Computational modeling was used to determine the likely domain of MFG-E8's binding to eCIRP. The known amino acid (AA) sequence of this domain was used to develop and test potential therapeutic peptides. An MFG-E8 derived oligopeptide, MOP3, was developed based on 15 AA from MFG-E8 discoidin 2 domain (mimicking MFG-E8's C-terminal) and tagged with the 3 AA, RGD, (mimicking MFG-E8's binding capacity for the integrin receptor at the N-terminal). Binding of MOP3 to CIRP was quantified using Surface Plasmon Resonance (SPR) analysis. Macrophages (RAW264.7 cells) were treated with FITC-recombinant mouse (rm)-CIRP or co-incubated MOP3 and FITC-rmCIRP with and without a. Br-integrin Ab. After 1 h, cells were fixed and analyzed for intracellular FITC-rmCIRP by flow cytometry. Macrophages were stimulated with rmCIRP or co-incubated mixture of MOP3 and rmCIRP. After 4 h, cell culture supernatants were analyzed for inflammatory cytokine, TNFα. […]
To examine the direct interaction between rmCIRP and rmMFG-E8, surface plasmon resonance (SPR), OpenSPR (Nicoya), was performed between rmCIRP and rmMFG-E8. rmCIRP was immobilized on carboxyl sensor and rmMFG-E8 was injected as an analyte in concentrations of 15.7 nM to 250 nM. […] To evaluate binding, the analyte was injected into flow cell-1 and flow cell-2 and increasing concentrations and real-time interaction data were analyzed by TraceDrawer (Nicoya). […]

Kd: 200 nM
B1: milk fat globule-epidermal growth factor—factor VIII (protein, listed as Mus musculus)
chain: MQVSRVLAALCGMLLCASGLFAASGDFCDSSLCLNGGTCLTGQDNDIYCLCPEGFTGLVCNETERGPCSPNPCYNDAKCLVTLDTQRGDIFTEYICQCPVGYSGIHCETETNYYNLDGEYMFTTAVPNTAVPTPAPTPDLSNNLASRCSTQLGMEGGAIADSQISASSVYMGFMGLQRWGPELARLYRTGIVNAWTASNYDSKPWIQVNLLRKMRVSGVMTQGASRAGRAEYLKTFKVAYSLDGRKFEFIQDESGGDKEFLGNLDNNSLKVNMFNPTLEAQYIKLYPVSCHRGCTLRFELLGCELHGCSEPLGLKNNTIPDSQMSASSSYKTWNLRAFGWYPHLGRLDNQGKINAWTAQSNSAKEWLQVDLGTQRQVTGIITQGARDFGHIQYVASYKVAHSDDGVQWTVYEEQGSSKVFQGNLDNNSHKKNIFEKPFMARYVRVLPVSWHNRITLRLELLGC
